# Assay results: the nanobody polyreactivity screen of Harvey et al. (2022)
# Assay: yeast display, Sf9 membrane polyspecificity reagent, FACS + sequencing; frameworks hold sequencing errors
# Method in brief: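 Polyreactivity labels are assigned by the sorting gate from which each nanobody was recovered. The gates were low and high (top ~1%), set on anti-HA fluorescence for expression and streptavidin fluorescence for reagent binding. Before sorting, galactose-induced (36–48 hours) yeast display cells were stained for 1 hour at 4 °C with 10% biotinylated, detergent-solubilized Sf9 membrane reagent.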
row,Sequence,polyreactivity (PSR sort gate)
1,QVQLVESGGGLVQAGGSLRLSCAASGSTFAYYTMGWYRQAPGKERELVAAISKSGGSTTYADSVKGRFTISRDNAKNTVYLQMNSLKPEDTAVYYCAAYDRVENYNYWGQGTQVTVSS,high polyreactivity
2,QVQLVESGGGLVQAVGSLRLSCAPSGSLFPGYAMGWYRQAPGKERELVAAITFSGGSTYYADSVKGRFTISRDYAKQSVYLPMNSLKPEDTAVYYCAAPGWYGGYPSYYYWGQGTQVTVSS,low polyreactivity
3,QVQLVESGGGLVQAGGSLRLSCAASGSTFVGYAMGWYRQAPGKEREVVAAISGSGTSTYYADSVKGRFTISRDNAKNTVYLQMNSLKPEDTAVYYCNSDPIFVYSSYNYWGQGTQVTVSS,low polyreactivity
4,QVQLVESGGGLVQVGGSLRLICAASGGIFSGNAMGWYRQAPGKERELVAGITNGGRTTYADSVKGRFTISRDNAKNTVYLQMNSLKPEDTAVYYCAAGKIGRRGHQNRLDLDYWGQGTQVTVSS,low polyreactivity
5,QVQLVESGGGLVQAGGSLRLSCAASGSIFYVNAMGWYRQAPGKERELVAAINWSGGRTYYADSVKGRFTISRDTAKNTVYLQMNSLKPEDTAVYYCAATVRRRYERYNYWGQGTQVTVSS,high polyreactivity
6,QDQHVESGGGLVQAGGSLRLICAASGLIFGYYAIGWYRLAPGKERELVAAITSDSSTNYADSVKGRFTISRDNAKNTVYLHMNSLKPVDTAVYYCAADIMTRRGYYYWGHGTQVTVSS,high polyreactivity
7,QVQLVESGGGLVQAGGSLLLSCAASGSTFAPYAMAWYRQAPRKERELVATISASGGTTYYADSVKGRFTISRDNAKNTVYLQMNSLKPEDTAVYYCAKRRVWWPAHRSYLYASEFGYWGQGTQVTVSS,low polyreactivity
8,QVQLVESGGGLVQAGGSLRLSCSASGRTFGGNAMGWSRPAPGKERELVAAIARSGGTTYYADSVKGRFTISRDNAKNTVYLQMNSLKPEDTAVYYCNTRRYGAMYYWGQGTQVTVSS,high polyreactivity
9,QVQLVESGGGLVQAGGSLRLSCAASGLTFQYYVMGSYRQAPGKERELVAAISSGGSTYYADSVKGRFTISRDNAKNTVYLQMNSLKPEDTAVYYCAAEAGYAYPLWPYTFPFEYWGQGTQVTVSS,low polyreactivity
10,QVQLLEAGGGLVQAGGSLRFSCAHSGSIVSHYAIGWYRQAPGKERELVAAITGGGITYYADSVKGRFTISRDNAKNTVYLQMNSLKPEDTAVDYCDTDSLMFTIYDYWGQGTQVTVSS,low polyreactivity
11,QVQLVESGGGLVQAAGSLRLSFAASGSIFGRYPMGWYRQAPGKERELVAAISTGDSTYYADSVKGRFTISRDNAKNTVYLQMISLKPEDTAVYYCNRRGRRGYDYWGQGTQVTVSS,high polyreactivity
12,QVQLVESGGGLVQAGGSLRISCAASGSTFSDYDMVWYRQAPGKERELVAAISKRGGSTDYADSVKGRFTFSRDNAKITVYLQMNSLKPEDTAVYYCAKDGTHGYDYWGQGTQVTVSS,low polyreactivity
13,QVHLVDSGGGLVQAGGSLRFSCAASGSIFGWYAMGWYRQAPGTERELVDSIAVTAGSTYYADSVKWRFPISRDKAKNTGYLQLNRLKPEDTALYSCAADDYSADAVQRFYYWGQGSQVTVSS,low polyreactivity
14,QVQLVESGGGLVQAGGTLRLSCAASGSTFAVNAMGWYRQPPGKERELVAAISRSGGSTYYADSVKGRFTISRDNAKNTDYLQMKSLKPEDTAFYYCNTRTPYWFKSDYWGQGTQVTVSS,low polyreactivity
15,QVQLVESGGGLVQAGGSLRLSCAASGSTFGHYVMGWYRQATGKERELVAAISYNGGSTYYADSVKGRFTISRDNAKNTVYLQMNSLKPEDTAVYSCAARGSYSFYRRVDYWGQGTQVTVSS,high polyreactivity
16,QVQLVESGGGLVQAGGSLRLSCAASGSTFSFYDMGWSRQAPGKEPELVAAITGSGGTTYYADSVKVRFTISRDNAKNTVYFQMNILKPEDTAFYYCAADSLESYPDYEYDFWGQGTQVTVSS,low polyreactivity
17,QVQLVESGGGLVKAGGSLRLSCAASGSTFSRNTMGWYRQAPGKERELVAAITKSAVSTYYADTVTGRFTISRDNAKNTDYLEMNSLKPEDTAVYYSAKVYRTSTSKAYDYWGQGTKVTVSS,high polyreactivity
18,QVQLVESVGGLVQAGGSLRLSCAATGRTFAWYALGWYRQAPGKERELVAAISSGGSTYYADSVKGRFTISRDNAKNTVYLQMNSLKPEDTAVYYCAAEWHYIYAYDYWGQGTQVTVSS,low polyreactivity
19,QVQLVESGGGLVQAGGSLRLSCAASGRIFHRNAMGWYRPAPGKERELVATIRGNGGSTYYADSVKGRFTISRDNAKNTVYLQMNSLKPEDTAVYYCARDAQGYGGWWTYSRFYSWGQGTQVTVSS,high polyreactivity
20,QVQIVESGGGLLQAGGSLRLSCAASGGIFGRYAMGWYRQAPGKERELVAAITTRGTSTYYADSVKGRFTISRDNAMNTVYLQMNSLKPEDTAVYYCSAAYGRHPSSGSWGQGTQVTVSS,high polyreactivity
21,QVQLVESGGGLVQAGGSLRLSCAASGNIFSYYAMGWYRQAPGKETELVAAIRSSGVGTRYADSVKGRFTISRDNAKNTVYVQMNSLKPEDTAVYYCAATGYTGYSRYYYWGQGTQVTVSS,high polyreactivity
22,QVQLVESGGGLVQAGGSLRLSCAASRFIFWSYAMGWYRQAPGKERELVAAISWRGGSTYYADSVKGRFTISRDNAKNTVYLQMNSLKPEDTAVYYCAAESYNGYDYWGQGTQVTVSS,high polyreactivity

row,Sequence,polyreactivity (PSR sort gate)
1,QVQLVESGGGLVQAGGSLRLSCAASGSTFSRNAMGWYRQAPGKERELVATISWRGGSTYYADSVKGRFTISRDNAKNTVYLQMNSLKPEDTAVYYCATLHRPAYYYWGQGTQVTVSS,high polyreactivity
2,QVQLVESGGGLVQAGGSLRLSCAASGYTSKTYAMGWYRQAPGKERELVAAINWGSGSTYYADSVKGRFTISRDNAKNTVYFQMYSLKPEDTAVYYCAALVYGHRRLVGNLSRGYWGQGTQVTVSS,high polyreactivity
3,QVQLVESGGGLVQAGGSLRLSCAASGSIFYFNAMGWYRQAPGKERELVAGISARGGSTYYADSVKGRFTISRDNAKNTVYLQMNSLKPEDTAVYYCAAYGTTRSRKRGFAWWGYDYWGQGTQVTVSS,low polyreactivity
4,QVQLVESGGGLVQAGGSLRLSCAASGSIFLYNAMGWYIQAPGKERELVAAISKSGGSTYYADSVKGRFTISRDNAKNTVYLQMNSLKPEDTAVYYCAADFLPQSYNWYDYWGQGTEVTVSS,low polyreactivity
5,QVQLVESGGGLVQAGGSLRLSCAASGSTFNSYTMGWYRKAPGKERELVAAITLSGGRTYYADSVKGRFTISRDNAKNTVYLQMNSLKPEDTAVYYCAAYCRASWERDYWGQGTQVTVTS,low polyreactivity
6,QVQLVESGGGLVQAGGSLRLSCAASGSTFPGYAMGWYRQAPGKDRELVAAISKRGGSTRYADSVKGRFTISRDKAKNTVYLQMNSLKPEDTAVYYCNAVYTKRYKYYYTSGYWGQGTQVTVSS,high polyreactivity
7,QVQLVESGGGLVQAGGSLRLSCAASGGTFWVYAMGWYRQAPGKERELVAAIRWRGGRTYYADSVKGRFTISRDNAKNTVYLQMNSLKPEDTEVYYCAATTWRSGRYNYWGQGTQVTVSS,high polyreactivity
8,QVQLVESGGGLVQAGGSLRLSCAASGRIFRSNAMGWYRQAPGKERELVATISRRGGSTYYADSVKGRFTISRDNAKNTVYLQMNSLKPEDTAVYYCNTRNSGSLDLYNTMDYWGQGTQVTVSS,high polyreactivity
9,QVQLVESGGGLVQAGGSLRLSCAASGLTFYTNAKGWYRQAPGKEREFVDAITSSGGRKYYADSVKGRFTISRDNAKNTVYLQMNSLKPEDTAVYYCAADARRPRIPEMYYWGQGTQVTVSS,high polyreactivity
10,QVQLVESGGGLVQAGGSLRLSCAASGSIFYWYAMGWYRQAPGKERELVAAITRAGSTNYADSVKGRFTISRDNAKNTVYLQMNSLKPEDTAVYYCAVAVTSYSSKKLYYWGQGTQVTVSS,low polyreactivity
11,QVQLVESGGGLVQGGGSLRLSCAASGRIFGVNAMGWYRQAPGKERELVATITSGTSTYYADSVKGRFTIARDNATTTVYLQITSLKPEDTAVYYSATSRVIPWDYDSWGQGTQVTVSS,low polyreactivity
12,QVQLVESGGGLVQAGGSLRLSCAASGSIFGINTMRWYRQAPGKEREFVASIRFNDGDTYYADSVKGRFTISRDNAKNTVYFQMNSLKPEDTAVYYFNVQTYVELRLDYWGQGTHVTVSS,low polyreactivity
13,QVQIVESGGGLVQAGGSLRLSCAASGRTFPYYVMGWYRHAPGKERELVATISSSGRTYYADSVKGRFTISRDNAKNTVYLQMNSLKPEDTAVYYCAARFRWNQNYHFYYWGQGTQVTVSS,high polyreactivity
14,QVQLVESGGGLVQAGGSLRLSCAASGSIFGAYAMGWYRQAPGKERELVAAIDKSTGSTYYADSVKGRFTISRDNAKNTVYLQMNSLKPEDTAVYYCAKDWGVYQYSYDYWGQGTQVTVSS,low polyreactivity
15,QVQLVESGGGLVQAGGSLRLSCAASGNIFGWYAMGWYRQAPGKERELVAAISSGGRTNYADSVKGRFTISRDNAKNTVYLQMNSLKPEDTAVYYCAAERKLYGLYDYWGQGTQVTVSS,low polyreactivity
16,QVQLVESGGGLVQAGGSLRLSCAASGRIFQGYAMGWYRPAPGKERELLAAITVRGGTTYYADSVKGRFTISRDNAKNTVYLQMNSLKPEDTAVYYCNAAKLIHGYQSVYPGSNSRYYYWGQGTQVTVSS,low polyreactivity
17,QVQLVESGGGLVQAGGSLRLSCAASGFTFRRNAMGWYRQAPGKERELVAAITGRGTGTYYADSVKGRFTISRDNAKNTVYLQMNSLKPEDTAVYYCNADPVRYLFTRYDYWGQGTQVTVSS,high polyreactivity
18,QVQLVESGGGIVQAGGSLRLSCAASGSTFFDNAIGWYRQAPGKERELVAAITRGGSKHYADSVMGRFTISRDNAKNTVYLQMNSVKPEDTAVYSCNAQRYRVPYDYWGQGTQVTVSS,low polyreactivity
19,QVQLVESGGGLVQAGGSLRLSCAASGRTFFNYGMGWYRQAPGKEREFVARISFSGGSTYYADSVKGRFTISRDNAKNTVYLQMNSVKPEDTAVYYCNARVFPFAYRYGYWGQGTQVTVSS,high polyreactivity
20,QVQLVESGGGLVQAGGSLRLSCAASGFTFRRNVMGWYRQAPGKERELVAAIRGSDGSTYYADSVKGRFTISRDNAKNTVYLQMNSLKPEDTAVYYCNVVGKGLYRKMGYWGQGTQVTVSS,high polyreactivity
21,QVQLVESGGGLVQAGGSLRLSCAASGITFDYYAMGWYRQAPRKERELVAAITGGGSTNYADSVKGRFTISRDNAKNTVYLQMNSLIPEDTAVYFCNALTRYRYQYGYLGGTGYNYWGHGTQVTVSS,low polyreactivity
